Data on 24 sequences can be found in the Immune Epitope Database (IEDB).

Among the targets are HLA-A*03:01; HLA-A*11:01; HLA-A*31:01; HLA-A*33:01; HLA-A*68:01.
What all share (test): IEDB peptide-MHC binding, purified MHC/competitive/radioactivity; filed as Kd, often an IC50 or EC50 that approximates it; ≥ and ≤ were set here for values at or beyond the usual limits of such assays
Setting [1] is: source organism: Vaccinia virus WR.
Setting [2] is: source organism: Mammarenavirus lassaense.
Setting [3] is: source organism: SARS coronavirus Tor2.
[4] abbreviates: source organism: Mammarenavirus brazilense.

Turning to LSKWHTSAR, the Kd in the assay with HLA-A*03:01 (setting [1]) was determined as 5830 nM; in the assay with HLA-A*11:01 (setting [1]), 3430 nM; with HLA-A*31:01 (setting [1]) it was 1.34 nM; with HLA-A*33:01 (setting [1]) it was 15.3 nM; with HLA-A*68:01 (setting [1]), 20.7 nM.
TLMSIISTFH: the Kd was 6370 nM with HLA-A*03:01 (setting [2]); no less than 34600 nM with HLA-A*11:01 (setting [2]); 8710 nM in the assay with HLA-A*31:01 (setting [2]); 15900 nM with HLA-A*33:01 (setting [2]); 2920 nM with HLA-A*68:01 (setting [2]).
Take PLFHGGEPIK: the Kd with HLA-A*03:01 (setting [1]) was 18300 nM; with HLA-A*11:01 (setting [1]), no less than 28700 nM; with HLA-A*31:01 (setting [1]), no less than 70000 nM; in the assay with HLA-A*33:01 (setting [1]), no less than 70000 nM; with HLA-A*68:01 (setting [1]), no less than 70200 nM.
For the sequence TTEMLSRALK, the Kd came to 101 nM in the assay with HLA-A*03:01 (setting [3]); 67.2 nM in the assay with HLA-A*11:01 (setting [3]); 120 nM with HLA-A*31:01 (setting [3]); 3910 nM with HLA-A*33:01 (setting [3]); 12.8 nM in the assay with HLA-A*68:01 (setting [3]).
On to ITKEIKNRDK, for which the Kd was 7890 nM with HLA-A*03:01 (setting [1]); 18400 nM with HLA-A*11:01 (setting [1]); no less than 10000 nM with HLA-A*31:01 (setting [1]); no less than 35800 nM with HLA-A*33:01 (setting [1]); 2210 nM with HLA-A*68:01 (setting [1]).
Regarding MLPPCYNFLK, the Kd with HLA-A*03:01 (setting [3]) came out at 6.77 nM; in the assay with HLA-A*11:01 (setting [3]) it was 9.53 nM; with HLA-A*31:01 (setting [3]), 129 nM; with HLA-A*33:01 (setting [3]), 138 nM; with HLA-A*68:01 (setting [3]) it was 2.61 nM.
Consider YLKNYKNFDY, for which the Kd is 4070 nM with HLA-A*03:01 (setting [1]); 2490 nM with HLA-A*11:01 (setting [1]); 1540 nM with HLA-A*31:01 (setting [1]); no less than 70000 nM in the assay with HLA-A*33:01 (setting [1]); 7290 nM with HLA-A*68:01 (setting [1]).
With VQMLSDTLK, the Kd with HLA-A*03:01 (setting [3]) was 74.3 nM; in the assay with HLA-A*11:01 (setting [3]), 18.7 nM; in the assay with HLA-A*31:01 (setting [3]), 413 nM; in the assay with HLA-A*33:01 (setting [3]) it was no less than 77700 nM; with HLA-A*68:01 (setting [3]) it was 2480 nM.
Take LIHDNIMYTY: the Kd with HLA-A*03:01 (setting [1]) is 45.3 nM; in the assay with HLA-A*11:01 (setting [1]), 238 nM; in the assay with HLA-A*31:01 (setting [1]) it was 4160 nM; with HLA-A*33:01 (setting [1]), no less than 32300 nM; with HLA-A*68:01 (setting [1]) it was 566 nM.
Consider PIYSHTERDK, for which the Kd with HLA-A*03:01 (setting [1]) was 932 nM; in the assay with HLA-A*11:01 (setting [1]) it was 6590 nM; with HLA-A*31:01 (setting [1]), 977 nM; with HLA-A*33:01 (setting [1]), no less than 54600 nM; in the assay with HLA-A*68:01 (setting [1]), 14000 nM.
On the same counts, the results for TSKTTILSK are 4520 nM, 403 nM, 2020 nM, no less than 37700 nM and 1110 nM.
Turning to LFFTTTLFLH, the Kd with HLA-A*03:01 (setting [4]) was found to be 771 nM; with HLA-A*11:01 (setting [4]), 4120 nM; in the assay with HLA-A*31:01 (setting [4]), 232 nM; in the assay with HLA-A*33:01 (setting [4]) it was 191 nM; with HLA-A*68:01 (setting [4]), 445 nM.
Consider SADNHPKMIK, for which the Kd was determined as 16.7 nM in the assay with HLA-A*03:01 (setting [1]); 2.04 nM with HLA-A*11:01 (setting [1]); 33.7 nM with HLA-A*31:01 (setting [1]); 144 nM in the assay with HLA-A*33:01 (setting [1]); 15.1 nM in the assay with HLA-A*68:01 (setting [1]).
As for NMKQCTNDIY, the Kd was 211 nM with HLA-A*03:01 (setting [1]); 16400 nM with HLA-A*11:01 (setting [1]); no less than 57400 nM with HLA-A*31:01 (setting [1]); no less than 65700 nM with HLA-A*33:01 (setting [1]); 2780 nM with HLA-A*68:01 (setting [1]).
On the same counts, the results for AISAVYFKAK are 8.04 nM, 26 nM, 1640 nM, no less than 70000 nM and 2530 nM.
On the same counts, the results for YIRRNMINK are 10.6 nM, 568 nM, 2370 nM, no less than 21300 nM and 168 nM.
On to TVSALVYDNK, for which the Kd in the assay with HLA-A*03:01 (setting [3]) was 488 nM; in the assay with HLA-A*11:01 (setting [3]), 20.6 nM; with HLA-A*31:01 (setting [3]), 4890 nM; with HLA-A*33:01 (setting [3]), 9750 nM; in the assay with HLA-A*68:01 (setting [3]), 5.88 nM.
On to TMADLVYALR, for which the Kd with HLA-A*03:01 (setting [3]) came out at 2250 nM; with HLA-A*11:01 (setting [3]), 898 nM; with HLA-A*31:01 (setting [3]), 81.3 nM; in the assay with HLA-A*33:01 (setting [3]), 136 nM; in the assay with HLA-A*68:01 (setting [3]), 9.4 nM.
For TFKIDAVRY, the Kd in the assay with HLA-A*03:01 (setting [1]) is no less than 78000 nM; with HLA-A*11:01 (setting [1]), 18900 nM; with HLA-A*31:01 (setting [1]), no less than 34900 nM; with HLA-A*33:01 (setting [1]) it was no less than 77700 nM; with HLA-A*68:01 (setting [1]), 1900 nM.
Turning to EILKINSVKY, the Kd was determined as 6090 nM with HLA-A*03:01 (setting [1]); 6290 nM in the assay with HLA-A*11:01 (setting [1]); 1040 nM in the assay with HLA-A*31:01 (setting [1]); 5170 nM with HLA-A*33:01 (setting [1]); 3870 nM with HLA-A*68:01 (setting [1]).
ICKMPLPTR: the Kd with HLA-A*03:01 (setting [2]) is no less than 40300 nM; with HLA-A*11:01 (setting [2]), 6030 nM; in the assay with HLA-A*31:01 (setting [2]), 36.8 nM; with HLA-A*33:01 (setting [2]), 775 nM; with HLA-A*68:01 (setting [2]), 16100 nM.
As for RARFIGGYIK, the Kd in the assay with HLA-A*03:01 (setting [1]) worked out at 629 nM; with HLA-A*11:01 (setting [1]) it was 16.8 nM; in the assay with HLA-A*31:01 (setting [1]), 59.4 nM; with HLA-A*33:01 (setting [1]) it was 11700 nM; in the assay with HLA-A*68:01 (setting [1]) it was 92.9 nM.
On the same counts, the results for DVRDKRRKY are no less than 28900 nM, no less than 77900 nM, no less than 77900 nM, no less than 77700 nM and no less than 53800 nM.
Turning to LLYAAEMVEY, the Kd with HLA-A*03:01 (setting [1]) stood at 3.93 nM; with HLA-A*11:01 (setting [1]), 0.576 nM; with HLA-A*31:01 (setting [1]), 236 nM; in the assay with HLA-A*33:01 (setting [1]), 17100 nM; with HLA-A*68:01 (setting [1]), 9.35 nM.

By Kd is commonly meant the constant that tells how readily two partners part at equilibrium.
